In IntAct's records for PubMed 29892012:

B1: Structure-specific endonuclease subunit SLX4 (Homo sapiens), Q8IY92 (parent)
chain: MKLSVNEAQLGFYLGSLSHLSACPGIDPRSSEDQPESLKTGQMMDESDEDFKELCASFFQRVKKHGIKEVSGERKTQKAASNGTQIRSKLKRTKQTATKTKTLQGPAEKKPPSGSQAPRTKKQRVTKWQASEPAHSVNGEGGVLASAPDPPVLRETAQNTQTGNQQEPSPNLSREKTRENVPNSDSQPPPSCLTTAVPSPSKPRTAQLVLQRMQQFKRADPERLRHASEECSLEAAREENVPKDPQEEMMAGNVYGLGPPAPESDAAVALTLQQEFARVGASAHDDSLEEKGLFFCQICQKNLSAMNVTRREQHVNRCLDEAEKTLRPSVPQIPECPICGKPFLTLKSRTSHLKQCAVKMEVGPQLLLQAVRLQTAQPEGSSSPPMFSFSDHSRGLKRRGPTSKKEPRKRRKVDEAPSEDLLVAMALSRSEMEPGAAVPALRLESAFSERIRPEAENKSRKKKPPVSPPLLLVQDSETTGRQIEDRVALLLSEEVELSSTPPLPASRILKEGWERAGQCPPPPERKQSFLWEGSALTGAWAMEDFYTARLVPPLVPQRPAQGLMQEPVPPLVPPEHSELSERRSPALHGTPTAGCGSRGPSPSASQREHQALQDLVDLAREGLSASPWPGSGGLAGSEGTAGLDVVPGGLPLTGFVVPSQDKHPDRGGRTLLSLGLLVADFGAMVNNPHLSDVQFQTDSGEVLYAHKFVLYARCPLLIQYVNNEGFSAVEDGVLTQRVLLGDVSTEAARTFLHYLYTADTGLPPGLSSELSSLAHRFGVSELVHLCEQVPIATDSEGKPWEEKEAENCESRAENFQELLRSMWADEEEEAETLLKSKDHEEDQENVNEAEMEEIYEFAATQRKLLQEERAAGAGEDADWLEGGSPVSGQLLAGVQVQKQWDKVEEMEPLEPGRDEAATTWEKMGQCALPPPQGQHSGARGAEAPEQEAPEEALGHSSCSSPSRDCQAERKEGSLPHSDDAGDYEQLFSSTQGEISEPSQITSEPEEQSGAVRERGLEVSHRLAPWQASPPHPCRFLLGPPQGGSPRGSHHTSGSSLSTPRSRGGTSQVGSPTLLSPAVPSKQKRDRSILTLSKEPGHQKGKERRSVLECRNKGVLMFPEKSPSIDLTQSNPDHSSSRSQKSSSKLNEEDEVILLLDSDEELELEQTKMKSISSDPLEEKKALEISPRSCELFSIIDVDADQEPSQSPPRSEAVLQQEDEGALPENRGSLGRRGAPWLFCDRESSPSEASTTDTSWLVPATPLASRSRDCSSQTQISSLRSGLAVQAVTQHTPRASVGNREGNEVAQKFSVIRPQTPPPQTPSSCLTPVSPGTSDGRRQGHRSPSRPHPGGHPHSSPLAPHPISGDRAHFSRRFLKHSPPGPSFLNQTPAGEVVEVGDSDDEQEVASHQANRSPPLDSDPPIPIDDCCWHMEPLSPIPIDHWNLERTGPLSTSSPSRRMNEAADSRDCRSPGLLDTTPIRGSCTTQRKLQEKSSGAGSLGNSRPSFLNSALWDVWDGEEQRPPETPPPAQMPSAGGAQKPEGLETPKGANRKKNLPPKVPITPMPQYSIMETPVLKKELDRFGVRPLPKRQMVLKLKEIFQYTHQTLDSDSEDESQSSQPLLQAPHCQTLASQTYKPSRAGVHAQQEATTGPGAHRPKGPAKTKGPRHQRKHHESITPPSRSPTKEAPPGLNDDAQIPASQESVATSVDGSDSSLSSQSSSSCEFGAAFESAGEEEGEGEVSASQAAVQAADTDEALRCYIRSKPALYQKVLLYQPFELRELQAELRQNGLRVSSRRLLDFLDTHCITFTTAATRREKLQGRRRQPRGKKKVERN
partner: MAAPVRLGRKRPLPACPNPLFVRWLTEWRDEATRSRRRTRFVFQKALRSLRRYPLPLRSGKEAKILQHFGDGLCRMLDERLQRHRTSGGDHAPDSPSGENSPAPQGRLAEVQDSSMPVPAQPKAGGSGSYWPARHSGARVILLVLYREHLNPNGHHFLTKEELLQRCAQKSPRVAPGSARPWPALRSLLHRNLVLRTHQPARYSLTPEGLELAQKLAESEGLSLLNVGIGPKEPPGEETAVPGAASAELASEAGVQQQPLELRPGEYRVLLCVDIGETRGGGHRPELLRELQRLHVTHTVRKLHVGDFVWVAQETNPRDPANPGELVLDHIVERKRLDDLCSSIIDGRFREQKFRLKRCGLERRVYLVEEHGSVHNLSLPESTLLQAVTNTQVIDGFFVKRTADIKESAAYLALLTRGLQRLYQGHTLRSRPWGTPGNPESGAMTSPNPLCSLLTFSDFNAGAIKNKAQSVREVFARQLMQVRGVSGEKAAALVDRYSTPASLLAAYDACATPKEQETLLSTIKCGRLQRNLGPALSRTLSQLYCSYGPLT
B2: Ligand of Numb protein X 2 (Homo sapiens), Q8N448 (parent)
chain: MGTTSDEMVSVEQTSSSSLNPLCFECGQQHWTRENHLYNYQNEVDDDLVCHICLQPLLQPLDTPCGHTFCYKCLRNFLQEKDFCPLDRKRLHFKLCKKSSILVHKLLDKLLVLCPFSSVCKDVMQRCDLEAHLKNRCPGASHRRVALERRKTSRTQAEIENENGPTLLDPAGTLSPEADCLGTGAVPVERHLTSASLSTWSEEPGLDNPAFEESAGADTTQQPLSLPEGEITTIEIHRSNPYIQLGISIVGGNETPLINIVIQEVYRDGVIARDGRLLAGDQILQVNNYNISNVSHNYARAVLSQPCNTLHLTVLRERRFGNRAHNHSDSNSPREEIFQVALHKRDSGEQLGIKLVRRTDEPGVFILDLLEGGLAAQDGRLSSNDRVLAINGHDLKYGTPELAAQIIQASGERVNLTIARPGKPQPGNTIREAGNHSSSSQHHTPPPYYSRPSSHKDLTQCVTCQEKHITVKKEPHESLGMTVAGGRGSKSGELPIFVTSVPPHGCLARDGRIKRGDVLLNINGIDLTNLSHSEAVAMLKASAASPAVALKALEVQIVEEATQNAEEQPSTFSENEYDASWSPSWVMWLGLPSTLHSCHDIVLRRSYLGSWGFSIVGGYEENHTNQPFFIKTIVLGTPAYYDGRLKCGDMIVAVNGLSTVGMSHSALVPMLKEQRNKVTLTVICWPGSLV
partner: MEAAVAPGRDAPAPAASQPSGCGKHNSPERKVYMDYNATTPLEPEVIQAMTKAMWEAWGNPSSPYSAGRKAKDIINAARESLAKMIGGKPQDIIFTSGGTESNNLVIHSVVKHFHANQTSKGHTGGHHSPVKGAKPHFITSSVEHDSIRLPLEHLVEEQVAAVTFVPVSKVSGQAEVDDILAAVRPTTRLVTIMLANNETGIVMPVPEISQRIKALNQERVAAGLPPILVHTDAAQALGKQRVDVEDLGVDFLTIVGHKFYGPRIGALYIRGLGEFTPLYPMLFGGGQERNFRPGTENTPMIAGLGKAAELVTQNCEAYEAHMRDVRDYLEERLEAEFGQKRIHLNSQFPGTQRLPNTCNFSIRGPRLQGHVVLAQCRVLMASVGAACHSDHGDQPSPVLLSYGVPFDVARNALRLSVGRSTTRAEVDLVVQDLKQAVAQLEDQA
B3: Protein arginine N-methyltransferase 8 (Homo sapiens), Q9NR22 (parent)
chain: MGMKHSSRCLLLRRKMAENAAESTEVNSPPSQPPQPVVPAKPVQCVHHVSTQPSCPGRGKMSKLLNPEEMTSRDYYFDSYAHFGIHEEMLKDEVRTLTYRNSMYHNKHVFKDKVVLDVGSGTGILSMFAAKAGAKKVFGIECSSISDYSEKIIKANHLDNIITIFKGKVEEVELPVEKVDIIISEWMGYCLFYESMLNTVIFARDKWLKPGGLMFPDRAALYVVAIEDRQYKDFKIHWWENVYGFDMTCIRDVAMKEPLVDIVDPKQVVTNACLIKEVDIYTVKTEELSFTSAFCLQIQRNDYVHALVTYFNIEFTKCHKKMGFSTAPDAPYTHWKQTVFYLEDYLTVRRGEEIYGTISMKPNAKNVRDLDFTVDLDFKGQLCETSVSNDYKMR
partner: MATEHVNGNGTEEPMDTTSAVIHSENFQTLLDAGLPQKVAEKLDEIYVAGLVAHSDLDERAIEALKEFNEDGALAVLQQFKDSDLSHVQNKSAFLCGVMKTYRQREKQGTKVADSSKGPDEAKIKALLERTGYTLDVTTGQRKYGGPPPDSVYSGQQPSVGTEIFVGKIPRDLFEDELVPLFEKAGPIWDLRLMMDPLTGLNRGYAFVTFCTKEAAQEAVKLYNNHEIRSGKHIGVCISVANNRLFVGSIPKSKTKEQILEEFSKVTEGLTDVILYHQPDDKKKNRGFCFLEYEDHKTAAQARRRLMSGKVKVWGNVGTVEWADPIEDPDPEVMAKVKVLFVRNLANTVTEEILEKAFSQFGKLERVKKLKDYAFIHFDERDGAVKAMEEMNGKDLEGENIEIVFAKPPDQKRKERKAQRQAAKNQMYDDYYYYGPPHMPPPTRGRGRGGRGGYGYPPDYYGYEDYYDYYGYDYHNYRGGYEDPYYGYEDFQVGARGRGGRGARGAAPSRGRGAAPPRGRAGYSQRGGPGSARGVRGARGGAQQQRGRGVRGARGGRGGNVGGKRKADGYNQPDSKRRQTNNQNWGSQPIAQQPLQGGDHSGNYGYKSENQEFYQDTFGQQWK

Variants of: B1
Details: with mus81_human MUS81, Q96NY9

| effect of a mutation on the interaction | Variant |
| --- | --- |
| disrupting interaction strength | F708L |

Variants of: B1
Details: with mus81_human MUS81, Q96NY9
Remark: another data set of the same source

| effect of a mutation on the interaction | Variant |
| --- | --- |
| with no effect | V886L |

Variants of: B2
Details: with scly_human SCLY

| effect of a mutation on the interaction | Variant |
| --- | --- |
| with no effect | P669A |

Variants of: B3
Details: with hnrpq_human SYNCRIP

| effect of a mutation on the interaction | Variant |
| --- | --- |
| with no effect | R350S |
